According to patent US20220040266A1:

Target: growth hormone receptor (GHR) on pancreatic cancer cells (human) (UniProt P10912)
Test: cell-based or functional assay

Chain of UniProt P10912 (P10912 19-638): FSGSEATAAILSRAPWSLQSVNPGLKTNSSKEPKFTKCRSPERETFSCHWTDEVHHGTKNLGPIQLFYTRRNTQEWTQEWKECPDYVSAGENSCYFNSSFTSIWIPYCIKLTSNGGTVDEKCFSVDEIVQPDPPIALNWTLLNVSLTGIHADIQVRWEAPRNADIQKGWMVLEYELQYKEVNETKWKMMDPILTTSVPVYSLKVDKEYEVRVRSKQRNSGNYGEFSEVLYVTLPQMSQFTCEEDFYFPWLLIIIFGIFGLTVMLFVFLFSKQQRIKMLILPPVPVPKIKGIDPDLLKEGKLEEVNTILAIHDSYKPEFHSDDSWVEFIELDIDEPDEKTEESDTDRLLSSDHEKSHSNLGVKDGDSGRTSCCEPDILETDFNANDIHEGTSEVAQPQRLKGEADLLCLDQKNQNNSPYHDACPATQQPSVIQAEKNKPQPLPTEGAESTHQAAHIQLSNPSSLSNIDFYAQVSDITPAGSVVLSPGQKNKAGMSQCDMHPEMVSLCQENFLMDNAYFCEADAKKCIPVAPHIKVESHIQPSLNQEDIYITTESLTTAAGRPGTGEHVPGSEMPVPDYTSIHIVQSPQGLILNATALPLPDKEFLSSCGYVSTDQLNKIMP

| drug efflux rate (DiOC2 dye), pancreatic cancer cells, 120 minutes [fold] | percentage of drug retention after 120 minutes, pancreatic cancer cells [%] | Substance |
| --- | --- | --- |
| 2 | 83 | Compound G (hGHR antagonist hGH-G120K having T142 and H151 changed to cysteine and having both added cysteines conjugated with dPEG-A) (from UniProt P01241 27-217) (ligand) |
| 2 | 83 | pegvisomant (SOMAVERT) (ligand) |
